In patent US20060287236A1 (BIO RAD LABORATORIES, published 2006):

Biological target: T1, transferrin receptor (TfR) (human, UniProt P02786 1-760)
T1 construct: whole, on cells; also called 100 and 200 kDa proteins
Experiment: immunoprecipitation of surface-biotinylated 293 cell proteins with HFE or FLAG antibodies
Protocol: Cell surface protein biotinylations. Cells (4×10⁶) were seeded into 100 mm dishes and grown overnight to 80% confluency. The plates were moved to 4° C. and gently washed four times with PBS. Suflo-NHS-LC Biotin (Pierce) was added in PBS to a final concentration of 500 g/ml and incubated on ice for 30 mins. The Biotin reagent was removed and the plates washed 4 times with PBS containing 50 mM glycine. Cells were lysed in 500 ml of 25 mM Tris-HCL, pH 7.5 150 mM NaCl plus 0.5% NP-40. […] Precipitated proteins were separated on 4-20% Tris-glycine polyacrylamide gels (Novex), electroblotted to PVDF membranes (Novex) and biotinylated proteins were visualized with 2 μg/ml of streptavidin-HRP (Pierce) followed by ECL detection reagents (Amersham).
Biotinylated proteins were detected with streptavidin-conjugated horseradish peroxidase (HRP).

T1 sequence (P02786 whole entry): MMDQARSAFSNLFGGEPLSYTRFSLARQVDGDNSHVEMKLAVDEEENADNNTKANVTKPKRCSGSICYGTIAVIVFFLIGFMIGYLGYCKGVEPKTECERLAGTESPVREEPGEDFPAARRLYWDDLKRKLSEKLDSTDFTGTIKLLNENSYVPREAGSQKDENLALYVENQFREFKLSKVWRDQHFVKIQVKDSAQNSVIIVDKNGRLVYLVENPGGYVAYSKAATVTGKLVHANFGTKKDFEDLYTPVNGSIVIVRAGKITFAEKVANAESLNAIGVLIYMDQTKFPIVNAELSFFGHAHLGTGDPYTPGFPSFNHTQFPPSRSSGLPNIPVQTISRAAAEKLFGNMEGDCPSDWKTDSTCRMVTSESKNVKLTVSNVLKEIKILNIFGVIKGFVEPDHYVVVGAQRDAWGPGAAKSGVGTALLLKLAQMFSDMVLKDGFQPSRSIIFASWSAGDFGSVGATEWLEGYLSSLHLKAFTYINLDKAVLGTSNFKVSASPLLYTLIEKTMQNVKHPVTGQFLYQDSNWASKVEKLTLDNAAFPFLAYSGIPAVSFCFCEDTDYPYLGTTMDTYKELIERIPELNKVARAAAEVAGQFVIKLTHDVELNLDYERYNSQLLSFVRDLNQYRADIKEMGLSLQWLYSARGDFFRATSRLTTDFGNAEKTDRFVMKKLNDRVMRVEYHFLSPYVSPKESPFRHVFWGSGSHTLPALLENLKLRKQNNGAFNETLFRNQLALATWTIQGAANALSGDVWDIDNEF

binding result: no binding
B1: C282Y HFE mutant over-expressed in 293 cells (other, UniProt Q30201 23-348, looked up)
MHC heavy: RLLRSHSLHYLFMGASEQDLGLSLFEALGYVDDQLFVFYDHESRRVEPRTPWVSSRISSQMWLQLSQSLKGWDHMFTVDFWTIMENHNHSKESHTLQVILGCEMQEDNSTEGYWKYGYDGQDHLEFCPDTLDWRAAEPRAWPTKLEWERHKIRARQNRAYLERDCPAQLQQLLELGRGVLDQQVPPLVKVTHHVTSSVTTLRCRALNYYPQNITMKWLKDKQPMDAKEFEPKDVLPNGDGTYQGWITLAVPPGEEQRYTYQVEHPGLDQPLIVIWEPSPSGTLVIGVISGIAVFVVILFIGILFIILRKRQGSRGAMGHYVLAERE
notes: also called C282Y mutant
